Measured values from US20140031283A1, “ANTICANCER FUSION PROTEIN” (ADAMED SP. Z O.O., priority 2011, published 2014).
Several values for one entry are separate records, joined by “and”; a condition that tells them apart may be missing. Equal entries are not always repeated.

B1: Ex. 14: fusion protein: 13-amino acid fragment of MEK-1 protein with antennapedia sequence at C-terminus of TRAIL121-281, MMP and uPA sites (protein)
chain: RVAAHITGTRGRSNTLSSPNSKNEKALGRKINSWESSRSGHSFLSNLHLRNGELVIHEKGFYYIYSQTYFRFQEEIKENTKNDKQMVQYIYKYTSYPDPILLMKSARNSCWSKDAEYGLYSIYQGGIFELKENDRIFVSVTNEHLIDMDHEASFFGAFLVGGSPLGLAGRVVRDRQIKIWFQNRRMKWKKGMPKKKPTPIQLN
modifications: synthesized, a fusion protein comprising: a fragment of TRAIL protein, a fragment of MEK-1 protein - an inhibitor of ERK activation, cleavage sites recognized by uPA and MMP, an antennapedia transporting domain and a glycine- cysteine linker.
B2: Ex. 17: fusion protein: 13-amino acid fragment of tubulin with 6 arginine residues at N-terminus of TRAIL121-281, uPA and MMP sites (protein)
chain: FRRKAFLHWYTGRRRRRRRRVVRPLGLAGRVAAHITGTRGRSNTLSSPNSKNEKALGRKINSWESSRSGHSFLSNLHLRNGELVIHEKGFYYIYSQTYFRFQEEIKENTKNDKQMVQYIYKYTSYPDPILLMKSARNSCWSKDAEYGLYSIYQGGIFELKENDRIFVSVTNEHLIDMDHEASFFGAFLVG
modifications: synthesized, a fusion protein comprising: a fragment of TRAIL protein, a fragment of tubulin peptide, cleavage sites recognized by urokinase uPA and metalloprotease MMP and an arginine transporting domain.
notes: fusion protein: 13-amino acid fragment of tubulin with 6 arginine residues at N-terminus of TRAIL121-281, uPA and MMP sites
B3: Ex. 2^a: fusion protein: 8-amino acid fragment of human fetoprotein (SEQ. No. 28) at N-terminus of TRAIL114-281, uPA cleavage site (protein)
chain: EMTPVNPGRVVRERGPQRVAAHITGTRGRSNTLSSPNSKNEKALGRKINSWESSRSGHSFLSNLHLRNGELVIHEKGFYYIYSQTYFRFQEEIKENTKNDKQMVQYIYKYTSYPDPILLMKSARNSCWSKDAEYGLYSIYQGGIFELKENDRIFVSVTNEHLIDMDHEASFFGAFLVG
modifications: synthesized, a fusion protein comprising: a fragment of TRAIL protein, a fragment of human fetoprotein and a cleavage site recognized by urokinase uPA.

Key:
MES-SA/Dx5 = test: MTT cytotoxicity test, MES-SA/Dx5 (multidrug-resistant human uterine sarcoma); type: cell-based; settings: for MES-SA/Dx5 mean (IC50): Table 4, mean/SD part
Text: (§1) MTT assay is a colorimetric assay used to measure proliferation, viability and cytotoxicity of cells. It consists in decomposition of a yellow tetrazolium salt MTT (4,5-dimethyl-2-thiazolyl)-2,5-diphenyltetrazolium bromide) to the water-insoluble purple dye formazan by mitochondrial enzyme succinate-tetrazolium reductase 1. MTT reduction occurs only in living cells. Data analysis consists in determining IC50 concentration of the protein (in ng/ml), at which the 50% reduction in the number of cells occurs in the population treated compared to control cells. Results were analyzed using GraphPad Prism 5.0 software. The test was performed according to the literature descriptions (Cells, J E, (1998). Cell Biology, a Laboratory Handbook, second edition, Academic Press, San Diego; Yang, Y., Koh, L W, Tsai, J H., (2004); Involvement of viral and chemical factors with oral cancer in Taiwan, Jpn J Clin Oncol, 34 (4), 176-183). Cell culture medium was diluted to a defined density (10^4-10^5 cells per 100 μl). Then 100 μl of appropriately diluted cell suspension was applied to a 96-well plate in triplicates. Thus prepared cells were incubated for 24 h at 37° C. in 5% or 10% CO2, depending on the medium used, and then to the cells (in 100 μl of medium) further 100 μl of the medium containing various concentrations of tested proteins were added. In the case of combination hTRAIL114-281 and p21WAF effector protein, 100 μl of the medium containing mixture of hTRAIL114-281 and p21WAF effector protein in molar ratio 1:1 was added. After incubation of the cells with tested proteins over the period of next 72 hours, which is equivalent to 3-4 times of cell division, the medium with the test protein was added with […] of MTT working solution [5 mg/ml], and incubation was continued for 3 h at 37° C. in 5% CO2. Then the medium with MTT solution was removed, and formazan crystals were dissolved by adding 100 μl of DMSO. After stirring, the absorbance was measured at 570 nm (reference filter 690 nm).
(§2) The results of in vitro cytotoxicity tests are summarized as IC50 values (ng/ml), which corresponds to the protein concentration at which the cytotoxic effect of fusion proteins is observed at the level of 50% with respect to control cells treated only with solvent. Each experiment represents the average value of at least two independent experiments performed in triplicates. As a criterion of lack of activity of protein preparations the IC50 limit of 2000 ng/ml was adopted.
Cells selected for this test included tumor cell lines that are naturally resistant to TRAIL protein (the criterion of natural resistance to TRAIL: IC50 for TRAIL protein >2000), as well as tumor cell lines sensitive to TRAIL protein and resistant to doxorubicin line MES-SA/DX5 as a cancer line resistant to conventional anticancer medicaments.

MCF10A = test: MTT cytotoxicity test, MCF10A (mammary epithelial cells); type: cell-based; settings: continuous incubation over 72 h, test MTT
Text: as §1, §2

A549 = test: MTT cytotoxicity test, A549 (human lung cancer); type: cell-based
Text: as §1, §2

SK-MES-1 = test: MTT cytotoxicity test, SK-MES-1 (human lung cancer); type: cell-based; settings: for SK-MES-1 mean (IC50): Table 4, mean/SD part
Text: as §1, §2

[1] = test system: TRAIL sensitive cell lines; test: in vitro cytotoxicity tests, TRAIL sensitive cell lines; type: cell-based; settings: continuous incubation over 72 h, test MTT; versus rhTRAIL 95-281 (cell line not given)
Text: as §1, with “nm). […]” for “nm).”

MES-SA = test: MTT cytotoxicity test, MES-SA (human uterine sarcoma); type: cell-based; settings: continuous incubation over 72 h, test MTT
Text: as §1, §2

HT-29 = test: MTT cytotoxicity test, HT-29 (human colorectal cancer); type: cell-based; settings: Table 4, mean/SD part; listed as Ex. 17^a
Text: (§3) MTT assay is a colorimetric assay used to measure proliferation, viability and cytotoxicity of cells. It consists in decomposition of a yellow tetrazolium salt MTT (4,5-dimethyl-2-thiazolyl)-2,5-diphenyltetrazolium bromide) to the water-insoluble purple dye formazan by mitochondrial enzyme succinate-tetrazolium reductase 1. MTT reduction occurs only in living cells. Data analysis consists in determining IC50 concentration of the protein (in ng/ml), at which the 50% reduction in the number of cells occurs in the population treated compared to control cells. Results were analyzed using GraphPad Prism 5.0 software. The test was performed according to the literature descriptions (Cells, J E, (1998). Cell Biology, a Laboratory Handbook, second edition, Academic Press, San Diego; Yang, Y., Koh, L W, Tsai, J H., (2004); Involvement of viral and chemical factors with oral cancer in Taiwan, Jpn J Clin Oncol, 34 (4), 176-183). Cell culture medium was diluted to a defined density (10^4-10^5 cells per 100 μl). Then 100 μl of appropriately diluted cell suspension was applied to a 96-well plate in triplicates. […] After stirring, the absorbance was measured at 570 nm (reference filter 690 nm). […]

NCI-H460 = settings: Table 4, mean/SD part
Procedure: Data analysis consists in determining IC50 concentration of the protein (in ng/ml), at which the 50% reduction in the number of cells occurs in the population treated compared to control cells. Results were analyzed using GraphPad Prism 5.0 software. […] Cell culture medium was diluted to a defined density (10^4-10^5 cells per 100 μl). Then 100 μl of appropriately diluted cell suspension was applied to a 96-well plate in triplicates. Thus prepared cells were incubated for 24 h at 37° C. in 5% or 10% CO2, depending on the medium used, and then to the cells (in 100 μl of medium) further 100 μl of the medium containing various concentrations of tested proteins were added. […] After incubation of the cells with tested proteins over the period of next 72 hours, which is equivalent to 3-4 times of cell division, the medium with the test protein was added with 20 ml of MTT working solution [5 mg/ml], and incubation was continued for 3 h at 37° C. in 5% CO2. Then the medium with MTT solution was removed, and formazan crystals were dissolved by adding 100 μl of DMSO. After stirring, the absorbance was measured at 570 nm (reference filter 690 nm).

[2] = test system: human colon cancer HCT116; test: HCT116 colon cancer xenograft in Crl:CD1-Foxn1^nu 1 mice; type: in vivo; settings: HCT116, Crl:CD1-Foxn1^nu 1 mice, 10 mg/kg i.v., 10 daily applications with a two-day break after the first 5, 27th day
Procedure: (§4) Antitumor activity of protein preparations was tested in a mouse model of human colon cancer HCT116, human colon cancer Colo205, human colon cancer model SW620, human liver cancer model HepG2, and human lung cancer models NCI-H460 and NCI-H460-Luc2.
(§5) The HCT116 (in mice Crl:CD1-Foxn1^nu 1), Colo205, NCI-H460, NCI-H460-Luc2 cells were maintained in RPMI 1640 medium (Hyclone, Logan, Utah, USA) mixed in the ratio of 1:1 with Opti-MEM (Invitrogen, Cat.22600-134) supplemented with 10% fetal calf serum and 2 mM glutamine. On the day of mice grafting, the cells were detached from the support by washing the cells with trypsin (Invitrogen), then the cells were centrifuged at 1300 rpm, 4° C., 8 min., suspended in HBSS buffer (Hanks medium), counted and diluted to the concentration of 25×10^6 cells/ml.
(§6) Examination of antitumor activity of proteins of the invention was conducted on 7-9 week-old CD-nude (Crl:CD1-Foxn1^nu 1) or 4-6 week-old Crl:SHO-Prkdc^scidHr^hr mice obtained from Charles River Germany. Mice were kept under specific pathogen-free conditions with free access to food and demineralised water (ad libitum). All experiments on animals were carried in accordance with the guidelines: “Interdisciplinary Principles and Guidelines for the Use of Animals in Research. […]

[3] = test system: human lung cancer NCI-H460-Luc2; test: NCI-H460-Luc2 lung cancer xenograft in Crl:CD1-Foxn1nu 1 mice; type: in vivo; settings: NCI-H460-Luc2, Crl:CD1-Foxn1nu 1 mice, 20 mg/kg i.v. six times every second day, 30th day
Procedure: as §4, §5, §6

NIH: OVCAR-3 = test: MTT cytotoxicity test, NIH: OVCAR-3 (human ovarian cancer); type: cell-based; settings: Table 4, mean/SD part
Text: as §3

UM-UC-3 = test: MTT cytotoxicity test, UM-UC-3 (human bladder cancer); type: cell-based; settings: Table 4, mean/SD part
Text: as §3

[4] = continuous incubation over 72 h, test MTT

| HCT116 IC50 (HCT-116; [4]) [µg/mL] | NCI-H460 mean (IC50) (NCI-H460) [µg/mL] | HCT116 mean (IC50) (HCT-116; Table 4, mean/SD part) | Molecule | MES-SA/Dx5 IC50 (MES-SA/Dx5; [4]) [µg/mL] | MCF10A IC50 (MCF10A) [µg/mL] | A549 IC50 (A549; [4]) [µg/mL] | SK-MES-1 IC50 (SK-MES-1; [4]) [µg/mL] | IC50 [1] [µg/mL] | MES-SA IC50 (MES-SA) [µg/mL] | MES-SA/Dx5 mean (IC50) (MES-SA/Dx5; listed as Ex. 17^a) | HT 29 mean (IC50) (HT-29) | A549 mean (IC50) (A549; Table 4, mean/SD part) [µg/mL] | SK-MES-1 mean (IC50) (SK-MES-1) [µg/mL] | MES-SA/Dx5 mean (IC50) (MES-SA/Dx5) [µg/mL] | tumor growth inhibition (TGI) relative to the control [2] [%] | tumor growth inhibition (TGI) relative to the control [3] [%] | OVCAR-3 mean (IC50) (NIH: OVCAR-3) [µg/mL] | UM-UC-3 mean (IC50) (UM-UC-3) [µg/mL] |
| --- | --- | --- | --- | --- | --- | --- | --- | --- | --- | --- | --- | --- | --- | --- | --- | --- | --- | --- |
| 0.1235 | – | – | B1 | 0.01373 | >2 | 1.767 | 0.02848 | 0.049 | 0.2312 | – | – | – | – | – | – | – | – | – |
| – | – | – | B2 | – | – | – | – | – | – | 0.07596 µg/mL and 0.04426 µg/mL | 6.808 µg/mL and 7.818 µg/mL | 2.887 | 0.08119 | – | – | – | – | – |
| – | 4.246 | 0.06 µg/mL and 0.06087 µg/mL | B3 | – | – | – | – | – | – | – | – | – | 0.01888 | 0.01896 | 71.2 | 81.3 | 0.0261 | 0.03506 |
